Assay results from the supplement of paper PMC11908140.

B1: library; numbered along this chain (parent)
chain: MRKPRAAVGSGHRKQAASQEGRQKHAKNNSQAKPSACDGLARQPEEVVLQASVSSYHLFRDVAEVTAFRGSLLSWYDQEKRDLPWRRRAEDEMDLDRRAYAVWVSEVMLQQTQVATVINYYTGWMQKWPTLQDLASASLEEVNQLWAGLGYYSRGRRLQEGARKVVEELGGHMPRTAETLQQLLPGVGRYTAGAIASIAFGQATGVVDGNVARVLCRVRAIGADPSSTLVSQQLWGLAQQLVDPARPGDFNQAAMELGATVCTPQRPLCSQCPVESLCRARQRVEQEQLLASGSLSGSPDVEECAPNTGQCHLCLPPSEPWDQTLGVVNFPRKASRKPPREESSATCVLEQPGALGAQILLVQRPNSGLLAGLWEFPSVTWEPSEQLQRKALLQELQRWAGPLPATHLRHLGEVVHTFSHIKLTYQVYGLALEGQTPVTTVPPGARWLTQEEFHTAAVSTAMKKVFRVYQGQQPGTCMGSKRSQVSSPCSRKKPRMGQQVLDNFFRSHISTDAHSLNSAAQ

Variants of: B1
Assay: 8OG:A repair function score (normalized; synonymous = 0, nonsense = -1) (normalized log-likelihood score); higher = more repair activity (WT-like)
Settings: with 8OG:A DNA repair reporter (GFP) in HEK-293 MUTYH KO cells
How it was run: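 Per-tile Rosace fitness scores were converted to a normalized repair function score anchored on synonymous and nonsense distributions. That scale puts synonymous medians at 0 and nonsense medians at -1. Variants with starting counts under 300 counts per million were discarded. Input came from sorting viable mCherry+ MUTYH knockout HEK-293 cells, carrying lentiviral MUTYH cDNA NNN codon-scan libraries in 10 pg/ml doxycycline and an 8OG:A GFP repair reporter, into GFP+ and GFP− bins at 72 h, three replicates per tile, followed by tile amplicon sequencing.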
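Note: cells sorted at 72 h after reporter transfection.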

Variant | 8OG:A repair function score
D61T | 0.00691
G193T | -0.169
I421E | -0.385
W124R | -1.05
L369M | 0.201
A334G | -0.0343
E90F | -0.0713
E90I | -0.0086
R81S | -0.535
L158V | -0.372
L158M | -0.194
D82W | -0.00177
V261E | -0.804
V214K | -0.957
V214N | -0.833
V214C | -0.56
P320W | -0.179
P320S | -0.0238
Q126Y | -0.055
Q126I | -0.00505
Y425W | -0.328
Y425V | 0.00816
M462T | 0.0162
L237K | -0.816

Variant | 8OG:A repair function score
L145S | 0.0372
L145W | -0.0219
A63W | -0.00488
A63F | -0.142
P34A | -0.039
A371Q | -0.374
L234H | -0.751
A223F | -0.516
Q159V | 0.0456
Y121F | -0.109
Y121C | -1.17
F68E | -1.5
E287T | -0.00299
K492T | -0.00293
K492M | 0.015
A456L | -0.287
W103H | -0.97
W103Y | -0.166
E79L | -0.0186
Q484F | -0.005
E140F | -0.353
V242W | -1.01
V242P | -0.961
V242D | -0.978

Variant | 8OG:A repair function score
Q286T | -0.00617
G401A | -0.317
Y190F | -0.574
Y190E | -0.808
Q288D | -0.0736
R42W | 0.0271
R42F | 0.00894
M478R | -0.0213
L268I | -0.0493
S367G | -0.159
L355T | 0.059
L355G | 0.0028
M93N | 0.00661
S419G | -0.522
A519W | 0.00269
A519C | -0.00674
R364G | -0.353
R364F | -0.639
L423T | -0.513
L423A | 0.0643
L423V | -0.132
C314D | -0.532
H416R | -0.158
G171K | -0.84

Variant | 8OG:A repair function score
N119F | -0.259
A135S | -0.0157
V206R | -1.01
V206D | -1.02
C489A | -0.00252
H514Y | -0.00319
R266E | -0.22
G236C | 0.116
Y56F | 0.0047
Y56D | -0.0985
Q111E | -1.24
Q110P | -0.29
G258H | -1.65
T122S | -0.0596
T449M | -0.0649
T449E | -0.0743
E451N | 0.26
E451T | -0.12
L229T | -0.124
L139G | -0.00666
G188Y | -0.89
W128F | -0.156
Q351A | -0.00592
K333D | -0.903

Variant | 8OG:A repair function score
K333P | 0.038
K333F | -0.221
E302L | -0.236
V47S | -0.0698
R157Q | -0.117
P264F | -0.223
P264R | -0.0983
P244A | -0.238
E385C | 0.258
G326E | -0.144
G326V | -0.514
I509V | 0.0164
R467V | -0.105
P316H | -0.123
A431W | -0.13
A431Y | -0.0701
G150I | -1.78
G155P | -0.0172
W381V | 0.0132
K3F | 0.00169
K3N | 0.00918
A305M | -0.0121
P331T | -0.351
S136L | -0.0288

Variant | 8OG:A repair function score
Q113A | -0.108
S71F | 0.00684
C262H | -1.1
E341K | -0.0881
E341A | 0.0808
S296Y | 0.0195
T66H | -0.091
T66V | 0.00408
C269M | -1.18
Q499T | -0.00713
G444S | -0.291
R340E | -0.133
K464P | -0.968
G293E | -0.0308
L134N | -0.686
L134P | -1.26
S227I | -0.232
V415E | -0.106
V415L | 0.0523
F330L | -0.149
F330M | -0.174
P247M | -0.978
A212I | -0.333
V500A | 0.00946

Variant | 8OG:A repair function score
W321F | -0.00541
W321S | -0.257
T439I | 0.0704
A192I | -1.07
R213L | -1.01
E141I | -0.599
E141C | -0.219
A177S | -0.1
F505W | 0.00244
S197N | -1.17
E167W | -0.0936
E167L | 0.00804
G353N | -0.00787
R279M | -0.178
L448H | -0.0456
L448T | -0.164
H407D | 0.0493
T191P | -0.924
G497W | 0.0164
V438T | -0.0976
H420T | -0.525
F376V | -0.809
F376R | -1.31
